Assay [1] concerns the target purified recombinant human α5β1 integrin heterodimer (rh-α5β1; Acro Biosystems, cat. no. IT1-H52W5) (human) (UniProt P08648). Briefly: Conformation assay ELISA: plate coated with 12G10, soluble 12G10 dilution series premixed with His-tagged rh-α5β1 and 0.5 mM MnCl2, captured α5β1 detected by anti-6xHis; competitor on the plate: 12G10 itself.
Assay [2] addresses T1, purified recombinant human α5β1 integrin heterodimer (rh-α5β1; Acro Biosystems, cat. no. IT1-H52W5) (human, UniProt P08648 42-995; P05556 21-728).
T1 construct: Bought protein; 6×His tagged; also called rh-α5β1-6×His tagged protein; His-tagged-α5β1
Nature of the assay: FN-blocking ELISA. On the procedure: Following 1 hour at RT, the wells were washed 3 times, incubated with biotinylated Anti-6×His-Tag Ab (Invitrogen, Carlsbad, CA, cat. no. MAI-21315-BTIN) at 1:1000 in Standard Diluent for 1 hour, washed 3 times, incubated for 30 minutes with poly-HRP Streptavidin (Thermo Fisher Scientific, Waltham, MA, cat. no. N200), washed 4 times, incubated with TMB substrate (Thermo Fisher Scientific, Waltham, MA, cat. no. N301) for 2-5 minutes, followed by addition of ELISA Stop Solution (Invitrogen, Carlsbad, CA, cat. no. SS04). Absorbance 450 nm was measured. Data points were normalized to the isotype Control Ab values at each concentration and reported as % Absorbance 450 nm normalized to Control Ab. Non-linear regression analysis was used to fit curves (4-parameter) to the data using GraphPad Prism version 9.0.2 (GraphPad Software, LLC, San Diego, CA).

Assay [3] deals with T1, purified recombinant human α5β1 …. Nature of the assay: Conformation assay ELISA: plate coated with 12G10, antibody dilution series premixed with His-tagged rh-α5β1 and 0.5 mM MnCl2, captured α5β1 detected by anti-6xHis; competitor on the plate: 12G10. As for the experimental part: Plates were then washed 3 times with Wash Buffer (1× Tris Buffered Saline containing 0.05% Tween20), then blocked with 2% BSA in 1×TBS for 2 hours at room temperature (RT). […] After 1 hour at RT, the wells were washed 3 times, incubated with biotinylated Anti-6×His-Tag Ab (Invitrogen, Carlsbad, CA, cat. no. MAI-21315-BTIN) at 1:1000 in Standard Diluent for 1 hour, washed 3 times, incubated for 30 minutes with poly-HRP Streptavidin (Thermo Fisher Scientific, Waltham, MA, cat. no. N200), washed 3 times, incubated with TMB substrate (Thermo Fisher Scientific, Waltham, MA, cat. no. N301) for 2-5 minutes, followed by addition of ELISA Stop Solution (Invitrogen, Carlsbad, CA, cat. no. SS04). Absorbance 450 nm was measured.

The target of assay [4] is T2, binding of α5β1 integrin to fibronectin (FN) (Homo sapiens, UniProt P05556+P08648).
T2 construct: purchased Acro Biosystems IT1-H52W5
Nature of the assay: Quantitative FN inhibition (FN-blocking) assay in ELISA format. It counts as biochemical. As to conditions: by ELISA. An excerpt:
To determine whether the 9 unique hybridoma clones selected as described in Example 4 were able to inhibit the binding of α5β1 integrin to fibronectin (FN), the antibodies were first purified from hybridoma supernatants by Protein A chromatography, protein concentrations measured by BCA assay (Pierce™ BCA Protein Assay Kit; Thermo Fisher Scientific, Waltham, MA, cat. no. 23225) and then tested in a quantitative FN inhibition assay in an ELISA format.
Immulon4 HBX ELISA 96-well plates were coated with FN by incubation overnight at 4° C. with 2.5 μg/mL human FN (R&D Systems, Minneapolis, MN 55413, cat. no. 1918-FN) in 1×PBS (0.01M phosphate buffer and 0.154M NaCl, pH 7.4). Plates were then washed 3 times with Wash Buffer (1× Tris Buffered Saline containing 0.05% Tween20), blocked with 2% BSA in 1×TBS for 2 hours at room temperature (RT). Antibodies were diluted in Standard Diluent (2% BSA, 1×TBS, 0.05% Tween20) containing 0.1 μg/mL rh-α5β1-6×His tagged protein (Acro Biosystems, Newark, DE, cat. no. IT1-H52W5), to generate an 11 point 1:3 antibody dilution series ranging from 10,000 ng/mL to 0.17 ng/mL. Isotype control antibody (Control Ab; Ms IgG2a EMD Millipore Corp, Billerica, MA, cat. no. PP102) was used to normalize data across different assay runs. For the assays, 100 uL of the antibody dilution series/His-tagged-α5β1 mixture was added to the wells after the blocking solution was removed and wells were washed 3 times. Following 1 hour at RT, the wells were washed 3 times, incubated with biotinylated Anti-6×His-Tag Ab (Invitrogen, Carlsbad, CA, cat. no. MAI-21315-BTIN) at 1:1000 in Standard Diluent for 1 hour, washed 3 times, incubated for 30 minutes with poly-HRP Streptavidin (Thermo Fisher Scientific, Waltham, MA, cat. no. N200), washed 4 times, incubated with TMB substrate (Thermo Fisher Scientific, Waltham, MA, cat. no. N301) for 2-5 minutes, followed by addition of ELISA Stop Solution (Invitrogen, Carlsbad, CA, cat. no. SS04). Absorbance 450 nm was measured. Data points were normalized to the isotype Control Ab values at each concentration and reported as % Absorbance 450 nm normalized to Control Ab. Non-linear regression analysis was used to fit curves (4-parameter) to the data using GraphPad Prism version 9.0.2 (GraphPad Software, LLC, San Diego, CA).
Freeze-thaw stability was tested on a small aliquot of each chimera antibody by overnight storage at −80° C. followed by thaw on ice, repeated three times. […] IC50s were calculated by non-linear regression analysis curve-fitting (4-parameter) of the ELISA data (FIG. 5) using GraphPad Prism version 9.0.2 (GraphPad Software, LLC, San Diego, CA). […]

The next assay addresses rh-α5β1 (Homo sapiens, UniProt P05556+P08648). Nature of the assay: Competition binding studies by Biolayer Interferometry (epitope groups). As to conditions: for Response (nm) / % Response: secondary mAb pre-mixed with 20 nM rh-α5β1; for % Response: relative to antigen alone. As for the experimental part:
Epitope analysis via competition binding studies was performed using Biolayer Interferometry (BLI) on the 6 antibodies selected as described in Example 5. The anti-α5β1 FN blocking antibodies A2-7A05, C-14D12 and A-15B08 were immobilized on sensors and incubated with each of the other antibodies that had been preincubated with rh-α5β1, to determine whether this antibody-antigen association prevents or allows binding to the antibody on the sensor. The magnitude of observed binding (response) was compared to binding of antigen alone under the same conditions. If the overall response was greater than 120% of antigen binding alone, then the antibodies can pair with each other. If response was less than 80% of response of antigen binding alone, then the antibodies block each other. The protocol was as follows: preincubate the panel of antibodies with antigen (1 hr). Equilibrate the sensor (30 seconds (s))-->Load lead Ab on the sensor (700s)--->Quench (480s)--->Read baseline (480s)-->measure preincubated Ab+Ag association with loaded sensor (600s).

Assay [5] concerns the target T3, rh-α5β1 in active conformation (binding to 12G10) (Homo sapiens, UniProt P05556+P08648).
T3 construct: purchased Acro Biosystems IT1-H52W5
Nature of the assay: 12G10 conformation assay (α5β1 integrin binding to 12G10). The following applies: human IgG4 chimeric antibodies; 0.5 mM MnCl2. On the procedure:
A Nunc MaxiSorp Flat-Bottom 96-well plate (Invitrogen, Waltham, MA, cat. no. 44-2404-21) was coated with 12G10 antibody at 2 μg/mL in 0.2M carbonate-bicarbonate buffer, pH9.4 (Thermo Scientific, Rockford, IL, cat. No. 28382) by incubation overnight at 4° C. Plates were then washed 3 times with Wash Buffer (1× Tris Buffered Saline containing 0.05% Tween20), then blocked with 2% BSA in 1×TBS for 2 hours at room temperature (RT). The human IgG4 chimeric versions of the antibodies were diluted in Standard Diluent (2% BSA, 1×TBS, 0.05% Tween20) containing 0.05 μg/mL rh-α5β1-6×His tagged protein (Acro Biosystems, Newark, DE, cat. no. IT1-H52W5) and 0.5 mM MnCl2 (TEKnova, Hollister, CA, cat. no. M0350) to generate a 7 point 1:5 antibody dilution series ranging from 10,000 ng/mL to 0.64 ng/mL. In addition to human IgG4 chimeric antibodies A-15B08, C-14D12 and A2-7A05, three other antibodies tested included IgG4 isotype control (human IgG4, Kappa, anti-fluorescein Ab00102-13.0, Absolute Antibody, Wilton, UK), anti-integrin alpha-5 clone SNAKA51 (MilliporeSigma, St. Louis, MO, cat. no. MABT201) known to induce integrin alpha-5 into an active conformation, and finally the 12G10 antibody itself which can directly compete with the 12G10 bound to the MaxiSorp plate. For the assays, 100 μL of the antibody dilution series, His-tagged-α5β1 mixture was added to the wells after the blocking solution was removed and wells were washed 3 times. […] Absorbance 450 nm was measured. Data points were normalized to the absorbance of the well containing no antibody for each dilution series and reported as Percent Binding. […]

Turning to “12G10 (mouse anti-human integrin beta1/CD29 antibody, Novus Biologicals, cat. no. NB100-63255)”, the IC50 (read off the curve) in assay [1] is 0.08 µg/mL.

B1: A-15B08 IgG4 Chimera (antibody, V domains shown)
VH: QVQLKESGPGLVAPSQSLSITCTISGFSLTSYGVHWVRQPPGKGLEWLVVIWSDGSTTYNSTLKSRLSISKDNSKSQVFFKMNSLQTDDTAMYYCARHYDYDGDWFAYWGQGTLVTVSA
VL: QIVLTQSPAIMSASLGERVTMTCTASSRVSSNSLHWYQQKPGSSPKLWIYSTSNLASGVPARFSGSGSGTSYSLTISSMEAEDAATYYCHQYLRSPPTFGGGTKLEIK
notes: heavy chain glycosylated at the NST site of CDRH2; also called A-15B08 (human IgG4 chimeric antibody)
For the molecule B1, in assay [2], the “fold potency (IC50) against the mouse hybridoma antibody it was derived from” value was approximately 2 fold. For the same molecule, the “IC50 (read off the curve)” value in assay [3] was approximately 0.02 µg/mL.

B2: C-14D12: anti-α5β1 antibody, VH SEQ ID NO:109, VL SEQ ID NO:110; tested as mouse hybridoma antibody and as human IgG4 chimera (antibody, V domains shown)
VH: QVQLKESGPDLVAPSQSLSITCTVSGFSLTDYGVHWVRQPPGKGLEWLVVIWSDGSTTYNSALKSRLSITKDTSKRQVFLKMNSLQTDDTAMYYCARHAPSFIRYGSRYDALDYWGQGTSVTVSS
VL: QIVLTQSPAIMSASLGERVTLTCTASSSVTSSFLHWYQQKPGSSPKLWIYSTSNLASGVPARFSGSGSGTSYSLTISSMEAEDAATYYCHQYHRSPPTFGGGTKLEIK
modifications: C-14D12 VH Sequence; C-14D12 VL Sequence
notes: tested as mouse hybridoma antibody and as human IgG4 chimera
Turning to B2, the “class of FN binding blocker” value in assay [4] is “strong blockers of FN binding”. Moreover, the “binding of rh-α5β1 complexed with antibody to A2-7A05 on the sensor” value with rh-α5β1 (antibody preincubated with rh-α5β1, A2-7A05 immobilized on sensor) is listed as “able to bind”. Besides, in the assay with rh-α5β1 (antibody preincubated with rh-α5β1, A-15B08 immobilized on sensor), the “binding of rh-α5β1 complexed with antibody to A-15B08 on the sensor” value is recorded as “not able to bind”. Also, the “Response (nm)” value is 0.11 nm with rh-α5β1 (immobilized mAb A2-7A05), −0.15 nm in the assay with rh-α5β1 (immobilized mAb A-15B08) and −0.11 nm with rh-α5β1 (immobilized mAb C-14D12). In addition, the “% Response” value with rh-α5β1 (immobilized mAb A2-7A05) is 309.19%; with rh-α5β1 (immobilized mAb A-15B08), −72.85%; with rh-α5β1 (immobilized mAb C-14D12), −50.49%. The epitope group result with rh-α5β1 (two epitope groups among 6 antibodies) is on record as “second group”. In assay [5], the “reduction of α5β1 integrin binding to 12G10” value was “approximately 50%”.

B3: C-14D12 IgG4 Chimera (antibody, V domains shown)
VH: QVQLKESGPDLVAPSQSLSITCTVSGFSLTDYGVHWVRQPPGKGLEWLVVIWSDGSTTYNSALKSRLSITKDTSKRQVFLKMNSLQTDDTAMYYCARHAPSFIRYGSRYDALDYWGQGTSVTVSS
VL: QIVLTQSPAIMSASLGERVTLTCTASSSVTSSFLHWYQQKPGSSPKLWIYSTSNLASGVPARFSGSGSGTSYSLTISSMEAEDAATYYCHQYHRSPPTFGGGTKLEIK
notes: also called C-14D12 (human IgG4 chimeric antibody)
Take B3: in assay [2], the “fold potency (IC50) against the mouse hybridoma antibody it was derived from” value is approximately 2 fold. Moreover, the “IC50 (read off the curve)” value in assay [3] is approximately 0.02 µg/mL.
